The values that follow come from publication PMC5890176.

For data set [1], the system named is SpnHU (HU, histone-like protein) (Streptococcus pneumoniae R6). As to the kind of experiment: EMSA (agarose). Particulars: 2 nM DNA, 10 mM Tris-HCl pH 8.0, 50 mM KCl, 0.05% Brij 58, 0.01 mg/ml BSA, 5% glycerol, 0.01 mM EDTA, 0.01 mM DTT, room temperature 20 min, 0.5% agarose in TBE. A general note: A gel shift assay detects complexes by their altered migration in electrophoresis.

Data set [2] addresses HU of Streptococcus pneumoniae (SpnHU) (Streptococcus pneumoniae R6). As to the kind of experiment: cross-linking; 0.1% glutaraldehyde, room temperature, 30 min, 5 mM Tris-HCl pH 8.0, 25 mM KCl, 25% glycerol, 0.25 mM EDTA, 0.25 mM DTT; SDS-PAGE (15%), Coomassie; all tested concentrations.

With pBR322 linear (PstI), the binding signal in data set [1] (SpnHU concentration required for shift (8-fold more than supercoiled)) is 1.6 µM. On to pBR322 supercoiled, for which the binding signal in data set [1] (SpnHU concentration at which shift seen) was determined as 0.2 µM. “HU of Streptococcus pneumoniae (SpnHU) (natural protein)” came in with a stoichiometry N in data set [2] of 2. pBR322 nicked (Nt.BstNBI): the binding signal in data set [1] (SpnHU concentration required for shift (16-fold more than supercoiled), nicked with Nt.BstNBI) was 3.2 µM.

What is called stoichiometry N is the number of molecules, sites or subunits per partner or assembly.
